According to FireProtDB (doi:10.1021/bi002609i):

Conditions: Dictyostelium discoideum, reversible: yes
[1] = pH 5.59, 20 °C, Thermal, DSC, MES/NaMES 50 mM
[2] = pH 5.7, 20 °C, Urea, CD, KH2PO4/K2HPO4 50 mM
[3] = pH 5.7, 20 °C, Urea, CD, MES 50 mM
[4] = pH 5.7, 20 °C, Urea, Fluorescence, MES 50 mM
[5] = pH 5.75, 20 °C, Thermal, DSC, MES/NaMES 50 mM
[6] = pH 5.81, 20 °C, Thermal, DSC, MES/NaMES 50 mM
[7] = pH 6.03, 20 °C, Thermal, DSC, MES/NaMES 50 mM
[8] = pH 6.09, 20 °C, Thermal, DSC, MES/NaMES 50 mM
[9] = pH 6.2, 20 °C, Urea, Fluorescence, MES 50 mM, NaCl 400 mM
[10] = pH 6.2, 20 °C, Urea, Fluorescence, MES 50 mM
[11] = pH 6.25, 20 °C, Thermal, DSC, MES/NaMES 50 mM
[12] = pH 6.7, 20 °C, Urea, CD, KH2PO4/K2HPO4 50 mM
[13] = pH 6.7, 20 °C, Urea, Fluorescence, KH2PO4/K2HPO4 50 mM
[14] = pH 7.08, 5 °C, Urea, Fluorescence, KH2PO4/K2HPO4 50 mM
[15] = pH 7.7, 20 °C, Urea, CD, KH2PO4/K2HPO4 50 mM
[16] = pH 7.7, 20 °C, Urea, Fluorescence, KH2PO4/K2HPO4 50 mM
[17] = pH 8.15, 20 °C, Urea, Fluorescence, KH2PO4/K2HPO4 50 mM
[18] = pH 8.7, 20 °C, Urea, CD, Glycine/sodium glycine 50 mM
[19] = pH 8.7, 20 °C, Urea, Fluorescence, Glycine/sodium glycine 50 mM
[20] = pH 9.7, 20 °C, Urea, CD, Glycine/sodium glycine 50 mM
[21] = pH 9.7, 20 °C, Urea, Fluorescence, Glycine/sodium glycine 50 mM

Sequence of Hisactophilin-1 wild type (P13231 whole entry, looked up): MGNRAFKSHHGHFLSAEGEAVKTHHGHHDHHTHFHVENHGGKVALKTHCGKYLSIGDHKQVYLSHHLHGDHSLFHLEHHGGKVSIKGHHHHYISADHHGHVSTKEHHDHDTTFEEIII

Which “heat capacity change of unfolding” value [1] does the source give for “Hisactophilin-1 wild type (from UniProt P13231)” here?
Its value is 2.4 kcal/mol/K.

And the unfolding free energy [1]?
Its unfolding free energy is 1.5 kcal/mol.

What about the Tm (pH 5.59, Thermal, DSC, MES/NaMES 50 mM) of the same substance?
Its Tm is 47 °C.

And the denaturant m value [2]?
Its denaturant m value is 2.24 kcal/mol/M.

And the “denaturant midpoint (higher = more stable)” value (“denaturant midpoint” below) [2]?
The value was 1.02 M.

What about the unfolding free energy [2] of the same substance?
Its unfolding free energy is 2.28 kcal/mol.

And the denaturant m value [3]?
Its denaturant m value is 2.19 kcal/mol/M.

And the “denaturant midpoint” value [3]?
The value was 1.05 M.

What about the unfolding free energy [3] of the same substance?
The unfolding free energy was 2.2 kcal/mol.

What about the denaturant m value [4] of the same substance?
Its denaturant m value is 2.2 kcal/mol/M.

What about the “denaturant midpoint” value [4] of the same substance?
The value was 0.99 M.

And the unfolding free energy [4]?
Its unfolding free energy is 2.18 kcal/mol.

What about the “heat capacity change of unfolding” value [5] of the same substance?
The value was 2.4 kcal/mol/K.

And the unfolding free energy [5]?
Its unfolding free energy is 1.4 kcal/mol.

What about the Tm (pH 5.75, Thermal, DSC, MES/NaMES 50 mM) of the same substance?
The Tm was 48.9 °C.

And the “heat capacity change of unfolding” value [6]?
The value was 2.4 kcal/mol/K.

What about the unfolding free energy [6] of the same substance?
The unfolding free energy was 2.1 kcal/mol.

What about the Tm (pH 5.81, Thermal, DSC, MES/NaMES 50 mM) of the same substance?
The Tm was 53.6 °C.

What about the “heat capacity change of unfolding” value [7] of the same substance?
Its value is 2.4 kcal/mol/K.

What about the unfolding free energy [7] of the same substance?
Its unfolding free energy is 2.8 kcal/mol.

And the Tm (pH 6.03, Thermal, DSC, MES/NaMES 50 mM)?
Its Tm is 58.3 °C.

And the “heat capacity change of unfolding” value [8]?
Its value is 2.4 kcal/mol/K.

What about the unfolding free energy [8] of the same substance?
The unfolding free energy was 4.1 kcal/mol.

What about the Tm (pH 6.09, Thermal, DSC, MES/NaMES 50 mM) of the same substance?
The Tm was 58.7 °C.

And the denaturant m value [9]?
Its denaturant m value is 2.56 kcal/mol/M.

What about the “denaturant midpoint” value [9] of the same substance?
Its value is 1.39 M.

What about the unfolding free energy [9] of the same substance?
The unfolding free energy was 3.56 kcal/mol.

And the denaturant m value [10]?
Its denaturant m value is 2.39 kcal/mol/M.

What about the “denaturant midpoint” value [10] of the same substance?
Its value is 2.23 M.

What about the unfolding free energy [10] of the same substance?
The unfolding free energy was 5.33 kcal/mol.

And the “heat capacity change of unfolding” value [11]?
Its value is 2.4 kcal/mol/K.

What about the unfolding free energy [11] of the same substance?
The unfolding free energy was 3.8 kcal/mol.

And the Tm (pH 6.25, Thermal, DSC, MES/NaMES 50 mM)?
The Tm was 61.7 °C.

And the denaturant m value [12]?
Its denaturant m value is 1.63 kcal/mol/M.

And the “denaturant midpoint” value [12]?
Its value is 3.1 M.

And the unfolding free energy [12]?
Its unfolding free energy is 5.04 kcal/mol.

What about the denaturant m value [13] of the same substance?
The denaturant m value was 1.62 kcal/mol/M.

And the “denaturant midpoint” value [13]?
The value was 3.08 M.

What about the unfolding free energy [13] of the same substance?
The unfolding free energy was 5.1 kcal/mol.

What about the denaturant m value [14] of the same substance?
Its denaturant m value is 1.67 kcal/mol/M.

And the “denaturant midpoint” value [14]?
Its value is 2 M.

What about the unfolding free energy [14] of the same substance?
Its unfolding free energy is 3.34 kcal/mol.

What about the denaturant m value [15] of the same substance?
Its denaturant m value is 1.63 kcal/mol/M.

What about the “denaturant midpoint” value [15] of the same substance?
The value was 4.31 M.

What about the unfolding free energy [15] of the same substance?
The unfolding free energy was 7.11 kcal/mol.

And the denaturant m value [16]?
The denaturant m value was 1.59 kcal/mol/M.

What about the “denaturant midpoint” value [16] of the same substance?
Its value is 4.26 M.

And the unfolding free energy [16]?
The unfolding free energy was 6.78 kcal/mol.

What about the denaturant m value [17] of the same substance?
The denaturant m value was 1.65 kcal/mol/M.

What about the “denaturant midpoint” value [17] of the same substance?
The value was 4.61 M.

And the unfolding free energy [17]?
Its unfolding free energy is 7.59 kcal/mol.

And the denaturant m value [18]?
Its denaturant m value is 1.46 kcal/mol/M.

And the “denaturant midpoint” value [18]?
The value was 5.18 M.

What about the unfolding free energy [18] of the same substance?
The unfolding free energy was 7.55 kcal/mol.

And the denaturant m value [19]?
Its denaturant m value is 1.49 kcal/mol/M.

And the “denaturant midpoint” value [19]?
The value was 5.19 M.

And the unfolding free energy [19]?
Its unfolding free energy is 7.75 kcal/mol.

What about the denaturant m value [20] of the same substance?
The denaturant m value was 1.53 kcal/mol/M.

What about the “denaturant midpoint” value [20] of the same substance?
Its value is 4.58 M.

And the unfolding free energy [20]?
Its unfolding free energy is 7.03 kcal/mol.

What about the denaturant m value [21] of the same substance?
Its denaturant m value is 1.65 kcal/mol/M.

And the “denaturant midpoint” value [21]?
Its value is 4.76 M.

What about the unfolding free energy [21] of the same substance?
The unfolding free energy was 7.85 kcal/mol.
